Laboratory results published in patent US20170190778A1.

Tests used:
[1] = molecular target: TGFβ receptor II (TGFβRII) on IMR90 human lung fibroblasts (human) (UniProt P37173); assay: cell-based or functional assay
[2] = molecular target: TGFβ receptor on mink lung epithelial cells (MLEC-TGFβ, PAI-1 promoter luciferase reporter) (mink); assay: cell-based or functional assay

Chain of TGFβ receptor II (TGFβRII) on IMR90 human lung fibroblasts (human) (P37173 23-567): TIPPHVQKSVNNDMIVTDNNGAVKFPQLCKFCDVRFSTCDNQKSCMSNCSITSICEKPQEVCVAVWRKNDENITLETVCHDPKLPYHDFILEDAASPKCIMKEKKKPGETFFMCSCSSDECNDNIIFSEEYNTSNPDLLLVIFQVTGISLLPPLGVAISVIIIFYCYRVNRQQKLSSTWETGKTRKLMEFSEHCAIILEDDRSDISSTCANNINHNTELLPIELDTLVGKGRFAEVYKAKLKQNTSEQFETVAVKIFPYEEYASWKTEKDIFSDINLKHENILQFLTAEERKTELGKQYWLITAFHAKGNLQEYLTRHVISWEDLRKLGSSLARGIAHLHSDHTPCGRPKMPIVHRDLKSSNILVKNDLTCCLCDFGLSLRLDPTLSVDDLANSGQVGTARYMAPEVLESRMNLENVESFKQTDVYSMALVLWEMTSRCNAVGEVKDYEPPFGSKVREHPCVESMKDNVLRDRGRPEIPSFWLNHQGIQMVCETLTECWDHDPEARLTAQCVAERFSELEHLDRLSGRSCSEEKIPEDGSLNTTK

C-terminal discoidin and carboxypeptidase domains of mouse ACLP (amino acids 374-1128, C-terminal myc-His tag) (from UniProt Q640N1 374-1128)
SMA and collagen protein expression in IMR90 cells (48 h) [1]: 30 nM | luciferase activity (PAI-1 promoter reporter in MLEC cells) [2]: 25 µg/mL

N-terminal Tsp repeat domain of mouse ACLP (amino acids 26-373, C-terminal myc-His tag) (from UniProt Q640N1 26-373) (ligand)
Smad3 phosphorylation in IMR90 cells (Western blot, 30 min) [1]: 30 nM | luciferase activity (PAI-1 promoter reporter in MLEC cells) [2]: 5 µg/mL
